Test results taken from patent US6448390.

Molecular target: amphotropic retrovirus receptor, endogenous on human 293 cells (human) (UniProt Q08357)
Assay: cell-based or functional assay

Sequence of UniProt Q08357 (Q08357 whole entry): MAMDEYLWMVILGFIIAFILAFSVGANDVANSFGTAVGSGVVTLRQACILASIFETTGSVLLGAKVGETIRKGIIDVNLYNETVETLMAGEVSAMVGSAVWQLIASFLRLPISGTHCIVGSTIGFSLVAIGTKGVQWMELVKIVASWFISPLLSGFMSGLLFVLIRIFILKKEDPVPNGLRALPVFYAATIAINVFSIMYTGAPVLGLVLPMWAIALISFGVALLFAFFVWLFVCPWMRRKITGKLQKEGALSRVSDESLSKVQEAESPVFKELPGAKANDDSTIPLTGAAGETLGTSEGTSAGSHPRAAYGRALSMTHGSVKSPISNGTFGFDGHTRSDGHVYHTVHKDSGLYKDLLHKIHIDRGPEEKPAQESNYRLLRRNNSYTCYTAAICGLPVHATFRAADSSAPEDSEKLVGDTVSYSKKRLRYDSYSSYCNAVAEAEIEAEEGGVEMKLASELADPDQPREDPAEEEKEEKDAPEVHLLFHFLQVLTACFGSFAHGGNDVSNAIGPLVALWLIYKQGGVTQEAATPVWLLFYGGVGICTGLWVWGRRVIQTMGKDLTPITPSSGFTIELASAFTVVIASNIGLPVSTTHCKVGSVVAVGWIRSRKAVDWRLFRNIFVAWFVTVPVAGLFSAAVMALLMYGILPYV

“ampho/eco+Q227R/D243Y fusion envelope protein: residues 1-208 of amphotropic 4070A envelope protein fused between Serine 6 and Proline 7 of MoMLV mutant envelope protein Q227R/D243Y” gave a delivery of the lacZ gene (infectious titer) to human 293 cells expressing the amphotropic receptor but not the ecotropic receptor of 1000 fold.
